Article PMC9482650, “Quantitative fragmentomics allow affinity mapping of interactomes” (Nature Communications, 2022)

T1: GRIP1_5, Q9Y3R0
T1 sequence (Q9Y3R0 568-668, limits assumed, looked up): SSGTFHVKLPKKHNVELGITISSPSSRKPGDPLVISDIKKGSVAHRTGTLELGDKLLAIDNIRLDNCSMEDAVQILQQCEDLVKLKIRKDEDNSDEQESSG

T2: MPP6, Q9NZW5
T2 sequence (Q9NZW5 125-219, limits assumed, looked up): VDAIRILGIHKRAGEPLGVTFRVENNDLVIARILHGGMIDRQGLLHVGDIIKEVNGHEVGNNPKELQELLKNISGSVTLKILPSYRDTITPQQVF

T3: GRIP1_3, Q9Y3R0
T3 sequence (Q9Y3R0 247-346, limits assumed, looked up): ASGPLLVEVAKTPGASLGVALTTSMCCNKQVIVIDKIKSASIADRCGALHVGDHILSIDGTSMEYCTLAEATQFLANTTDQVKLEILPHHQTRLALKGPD

T4: TX1BP3, O14907
T4 sequence (O14907 10-122, limits assumed, looked up): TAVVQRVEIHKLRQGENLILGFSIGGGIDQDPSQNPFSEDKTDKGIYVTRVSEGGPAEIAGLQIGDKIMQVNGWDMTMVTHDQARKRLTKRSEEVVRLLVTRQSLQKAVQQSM

T5: DFNB31_2, Q9P202
T5 sequence (Q9P202 274-371, limits assumed, looked up): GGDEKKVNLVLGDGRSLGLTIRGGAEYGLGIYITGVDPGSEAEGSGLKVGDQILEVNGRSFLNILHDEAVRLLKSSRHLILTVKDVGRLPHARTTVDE

T6: GRIP1_2, Q9Y3R0
T6 sequence (Q9Y3R0 145-248, limits assumed, looked up): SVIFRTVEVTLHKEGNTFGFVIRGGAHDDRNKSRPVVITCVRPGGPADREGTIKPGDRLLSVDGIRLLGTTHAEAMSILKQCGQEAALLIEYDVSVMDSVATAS

T7: SIPA1L2, Q9P2F8
T7 sequence (Q9P2F8 945-1036, limits assumed, looked up): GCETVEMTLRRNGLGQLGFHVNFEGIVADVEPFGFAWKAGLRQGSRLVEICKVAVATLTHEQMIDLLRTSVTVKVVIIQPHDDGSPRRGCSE

T8: SNTA1, Q13424
T8 sequence (Q13424 82-180, limits assumed, looked up): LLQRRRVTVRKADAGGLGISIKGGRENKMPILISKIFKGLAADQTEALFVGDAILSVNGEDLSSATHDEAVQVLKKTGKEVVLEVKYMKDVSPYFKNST

T9: TJP3_3, O95049
T9 sequence (O95049 375-456, limits assumed, looked up): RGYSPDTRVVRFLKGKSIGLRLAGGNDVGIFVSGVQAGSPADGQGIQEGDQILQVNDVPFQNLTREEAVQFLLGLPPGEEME

T10: MPDZ_10, O75970
T10 sequence (O75970 1624-1722, limits assumed, looked up): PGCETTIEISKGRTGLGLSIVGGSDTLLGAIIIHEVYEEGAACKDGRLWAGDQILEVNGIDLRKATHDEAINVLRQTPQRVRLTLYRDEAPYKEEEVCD

T11: CARD11, Q9BXL7
T11 sequence (Q9BXL7 662-765, limits assumed, looked up): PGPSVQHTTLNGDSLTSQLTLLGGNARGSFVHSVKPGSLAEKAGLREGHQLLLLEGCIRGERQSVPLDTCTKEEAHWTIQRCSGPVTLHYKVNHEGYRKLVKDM

T12: PTPN13_1, Q12923
T12 sequence (Q12923 1088-1188, limits assumed, looked up): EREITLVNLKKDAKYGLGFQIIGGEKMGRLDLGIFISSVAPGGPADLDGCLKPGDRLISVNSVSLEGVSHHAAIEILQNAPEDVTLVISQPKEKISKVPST

T13: LNX2_2, Q8N448
T13 sequence (Q8N448 334-432, limits assumed, looked up): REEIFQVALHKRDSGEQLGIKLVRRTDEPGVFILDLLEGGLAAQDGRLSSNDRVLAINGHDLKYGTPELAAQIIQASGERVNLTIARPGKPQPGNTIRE

T14: APBA1_1, Q02410
T14 sequence (Q02410 651-752, limits assumed, looked up): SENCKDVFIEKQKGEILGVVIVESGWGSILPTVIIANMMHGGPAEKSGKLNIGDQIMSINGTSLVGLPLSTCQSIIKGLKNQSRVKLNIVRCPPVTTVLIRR


These binders were tested against GRIP2_3, Q9C0E4 (assay: holdup assay). Settings: plain residues with an end cap or a label only (N-terminal biotin on a linker: ttds).
GRIP2_3, Q9C0E4, sequence (Q9C0E4 238-339): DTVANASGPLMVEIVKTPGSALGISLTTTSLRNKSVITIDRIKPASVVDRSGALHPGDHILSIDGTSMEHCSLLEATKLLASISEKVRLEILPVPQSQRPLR
Parameters: key: below the threshold = too weak to quantify, mostly under pKd 3.1 to 4

Binder | pKd
KKYVDAETSL [SLC4A7, Q9Y6M7] | below the threshold
RHTTSTETAV [HPV30-E6, P36809] | 3.61
RLQRRRETQV [HPV18-E6, P06463] | below the threshold

These binders were tested against AHNAK1, Q09666 (assay: holdup assay). Settings: plain residues with an end cap or a label only (N-terminal biotin on a linker: ttds).
AHNAK1, Q09666, sequence (Q09666 4-100): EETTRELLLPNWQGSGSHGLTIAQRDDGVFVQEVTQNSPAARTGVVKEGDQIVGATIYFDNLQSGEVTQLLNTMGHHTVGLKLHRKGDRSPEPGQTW
Parameters: key: below the threshold = too weak to quantify, mostly under pKd 3.1 to 4

Binder | pKd
KKYVDAETSL [SLC4A7, Q9Y6M7] | below the threshold
RHTTSTETAV [HPV30-E6, P36809] | 3.72
RLQRRRETQV [HPV18-E6, P06463] | below the threshold

These binders were tested against T1, GRIP1_5, Q9Y3R0 (assay: holdup assay). Settings: plain residues with an end cap or a label only (N-terminal biotin on a linker: ttds).
Parameters: key: below the threshold = too weak to quantify, mostly under pKd 3.1 to 4

Binder | pKd
KKYVDAETSL [SLC4A7, Q9Y6M7] | 3.53
RHTTSTETAV [HPV30-E6, P36809] | below the threshold
RLQRRRETQV [HPV18-E6, P06463] | below the threshold

The binders below were run against T2, MPP6, Q9NZW5 (assay: holdup assay). Settings: plain residues with an end cap or a label only (N-terminal biotin on a linker: ttds).
Parameters: key: below the threshold = too weak to quantify, mostly under pKd 3.1 to 4

Binder | pKd
KKYVDAETSL [SLC4A7, Q9Y6M7] | below the threshold
RHTTSTETAV [HPV30-E6, P36809] | below the threshold
RLQRRRETQV [HPV18-E6, P06463] | below the threshold

Each binder was assayed against T3, GRIP1_3, Q9Y3R0 (assay: holdup assay). Settings: plain residues with an end cap or a label only (N-terminal biotin on a linker: ttds).
Parameters: key: below the threshold = too weak to quantify, mostly under pKd 3.1 to 4

Binder | pKd
KKYVDAETSL [SLC4A7, Q9Y6M7] | below the threshold
RHTTSTETAV [HPV30-E6, P36809] | below the threshold
RLQRRRETQV [HPV18-E6, P06463] | below the threshold

These binders were tested against T4, TX1BP3, O14907 (assay: holdup assay). Settings: plain residues with an end cap or a label only (N-terminal biotin on a linker: ttds).
Parameters: key: below the threshold = too weak to quantify, mostly under pKd 3.1 to 4

Binder | pKd
KKYVDAETSL [SLC4A7, Q9Y6M7] | 3.82
RHTTSTETAV [HPV30-E6, P36809] | 4.65
RLQRRRETQV [HPV18-E6, P06463] | 4.67

What follows are binders tested against T5, DFNB31_2, Q9P202 (assay: holdup assay). Settings: plain residues with an end cap or a label only (N-terminal biotin on a linker: ttds).
Parameters: key: below the threshold = too weak to quantify, mostly under pKd 3.1 to 4

Binder | pKd
KKYVDAETSL [SLC4A7, Q9Y6M7] | 3.5
RHTTSTETAV [HPV30-E6, P36809] | below the threshold
RLQRRRETQV [HPV18-E6, P06463] | below the threshold

The binders below were run against GRIP2_5, Q9C0E4 (assay: holdup assay). Settings: plain residues with an end cap or a label only (N-terminal biotin on a linker: ttds).
GRIP2_5, Q9C0E4, sequence (Q9C0E4 544-642): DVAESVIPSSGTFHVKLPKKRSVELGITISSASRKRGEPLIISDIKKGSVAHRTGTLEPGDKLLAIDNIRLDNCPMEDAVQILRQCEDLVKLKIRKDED
Parameters: key: below the threshold = too weak to quantify, mostly under pKd 3.1 to 4

Binder | pKd
KKYVDAETSL [SLC4A7, Q9Y6M7] | below the threshold
RHTTSTETAV [HPV30-E6, P36809] | 3.75
RLQRRRETQV [HPV18-E6, P06463] | below the threshold

These binders were tested against T6, GRIP1_2, Q9Y3R0 (assay: holdup assay). Settings: plain residues with an end cap or a label only (N-terminal biotin on a linker: ttds).
Parameters: key: below the threshold = too weak to quantify, mostly under pKd 3.1 to 4

Binder | pKd
KKYVDAETSL [SLC4A7, Q9Y6M7] | below the threshold
RHTTSTETAV [HPV30-E6, P36809] | 3.78
RLQRRRETQV [HPV18-E6, P06463] | below the threshold

What follows are binders tested against T7, SIPA1L2, Q9P2F8 (assay: holdup assay). Settings: plain residues with an end cap or a label only (N-terminal biotin on a linker: ttds).
Parameters: key: below the threshold = too weak to quantify, mostly under pKd 3.1 to 4

Binder | pKd
KKYVDAETSL [SLC4A7, Q9Y6M7] | below the threshold
RHTTSTETAV [HPV30-E6, P36809] | below the threshold
RLQRRRETQV [HPV18-E6, P06463] | below the threshold

What follows are binders tested against TJP1_2, Q07157 (assay: holdup assay). Settings: plain residues with an end cap or a label only (N-terminal biotin on a linker: ttds).
TJP1_2, Q07157, sequence (Q07157 181-274): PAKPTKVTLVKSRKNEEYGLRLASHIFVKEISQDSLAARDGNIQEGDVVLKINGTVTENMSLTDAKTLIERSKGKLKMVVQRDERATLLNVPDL
Parameters: key: below the threshold = too weak to quantify, mostly under pKd 3.1 to 4

Binder | pKd
KKYVDAETSL [SLC4A7, Q9Y6M7] | below the threshold
RHTTSTETAV [HPV30-E6, P36809] | below the threshold
RLQRRRETQV [HPV18-E6, P06463] | below the threshold

These binders were tested against T8, SNTA1, Q13424 (assay: holdup assay). Settings: plain residues with an end cap or a label only (N-terminal biotin on a linker: ttds).
Parameters: key: below the threshold = too weak to quantify, mostly under pKd 3.1 to 4

Binder | pKd
KKYVDAETSL [SLC4A7, Q9Y6M7] | 4.14
RHTTSTETAV [HPV30-E6, P36809] | 4.72
RLQRRRETQV [HPV18-E6, P06463] | 4.7

What follows are binders tested against GORASP2, Q9H8Y8 (assay: holdup assay). Settings: plain residues with an end cap or a label only (N-terminal biotin on a linker: ttds).
Parameters: key: below the threshold = too weak to quantify, mostly under pKd 3.1 to 4

Binder | pKd
KKYVDAETSL [SLC4A7, Q9Y6M7] | below the threshold
RHTTSTETAV [HPV30-E6, P36809] | below the threshold
RLQRRRETQV [HPV18-E6, P06463] | 3.89

What follows are binders tested against DLG2_3, Q15700 (assay: holdup assay). Settings: plain residues with an end cap or a label only (N-terminal biotin on a linker: ttds).
Parameters: key: below the threshold = too weak to quantify, mostly under pKd 3.1 to 4

Binder | pKd
KKYVDAETSL [SLC4A7, Q9Y6M7] | below the threshold
RHTTSTETAV [HPV30-E6, P36809] | 4.79
RLQRRRETQV [HPV18-E6, P06463] | 5.06

The binders below were run against T9, TJP3_3, O95049 (assay: holdup assay). Settings: plain residues with an end cap or a label only (N-terminal biotin on a linker: ttds).
Parameters: key: below the threshold = too weak to quantify, mostly under pKd 3.1 to 4

Binder | pKd
KKYVDAETSL [SLC4A7, Q9Y6M7] | below the threshold
RHTTSTETAV [HPV30-E6, P36809] | below the threshold
RLQRRRETQV [HPV18-E6, P06463] | below the threshold

Each binder was assayed against Inadl_4, Q8NI35 (assay: holdup assay). Settings: plain residues with an end cap or a label only (N-terminal biotin on a linker: ttds).
Inadl_4, Q8NI35, sequence (Q8NI35 547-651): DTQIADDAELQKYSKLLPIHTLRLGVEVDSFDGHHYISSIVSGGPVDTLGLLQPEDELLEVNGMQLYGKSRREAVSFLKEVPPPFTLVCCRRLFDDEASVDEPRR
Parameters: key: below the threshold = too weak to quantify, mostly under pKd 3.1 to 4

Binder | pKd
KKYVDAETSL [SLC4A7, Q9Y6M7] | below the threshold
RHTTSTETAV [HPV30-E6, P36809] | below the threshold
RLQRRRETQV [HPV18-E6, P06463] | below the threshold

The binders below were run against T10, MPDZ_10, O75970 (assay: holdup assay). Settings: plain residues with an end cap or a label only (N-terminal biotin on a linker: ttds).
Parameters: key: below the threshold = too weak to quantify, mostly under pKd 3.1 to 4

Binder | pKd
KKYVDAETSL [SLC4A7, Q9Y6M7] | below the threshold
RHTTSTETAV [HPV30-E6, P36809] | below the threshold
RLQRRRETQV [HPV18-E6, P06463] | 3.56

The binders below were run against T11, CARD11, Q9BXL7 (assay: holdup assay). Settings: plain residues with an end cap or a label only (N-terminal biotin on a linker: ttds).
Parameters: key: below the threshold = too weak to quantify, mostly under pKd 3.1 to 4

Binder | pKd
KKYVDAETSL [SLC4A7, Q9Y6M7] | below the threshold
RHTTSTETAV [HPV30-E6, P36809] | below the threshold
RLQRRRETQV [HPV18-E6, P06463] | below the threshold

Each binder was assayed against T12, PTPN13_1, Q12923 (assay: holdup assay). Settings: plain residues with an end cap or a label only (N-terminal biotin on a linker: ttds).
Parameters: key: below the threshold = too weak to quantify, mostly under pKd 3.1 to 4

Binder | pKd
KKYVDAETSL [SLC4A7, Q9Y6M7] | below the threshold
RHTTSTETAV [HPV30-E6, P36809] | below the threshold
RLQRRRETQV [HPV18-E6, P06463] | below the threshold

What follows are binders tested against T13, LNX2_2, Q8N448 (assay: holdup assay). Settings: plain residues with an end cap or a label only (N-terminal biotin on a linker: ttds).
Parameters: key: below the threshold = too weak to quantify, mostly under pKd 3.1 to 4

Binder | pKd
KKYVDAETSL [SLC4A7, Q9Y6M7] | below the threshold
RHTTSTETAV [HPV30-E6, P36809] | 3.77
RLQRRRETQV [HPV18-E6, P06463] | 3.17

What follows are binders tested against HTRA2, O43464 (assay: holdup assay). Settings: plain residues with an end cap or a label only (N-terminal biotin on a linker: ttds).
HTRA2, O43464, sequence (O43464 355-458): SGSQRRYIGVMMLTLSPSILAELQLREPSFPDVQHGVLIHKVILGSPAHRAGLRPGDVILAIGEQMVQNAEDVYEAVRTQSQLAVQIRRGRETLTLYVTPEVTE
Parameters: key: below the threshold = too weak to quantify, mostly under pKd 3.1 to 4

Binder | pKd
KKYVDAETSL [SLC4A7, Q9Y6M7] | below the threshold
RHTTSTETAV [HPV30-E6, P36809] | below the threshold
RLQRRRETQV [HPV18-E6, P06463] | below the threshold

The binders below were run against T14, APBA1_1, Q02410 (assay: holdup assay). Settings: plain residues with an end cap or a label only (N-terminal biotin on a linker: ttds).
Parameters: key: below the threshold = too weak to quantify, mostly under pKd 3.1 to 4

Binder | pKd
KKYVDAETSL [SLC4A7, Q9Y6M7] | below the threshold
RHTTSTETAV [HPV30-E6, P36809] | below the threshold
RLQRRRETQV [HPV18-E6, P06463] | below the threshold
